Results as given in paper doi:10.1101/2022.10.17.512631 (bioRxiv, 2022).

Biological target: METTL3 (human, UniProt Q86U44 1-580)
Assay: SPR

Sequence of METTL3 (Q86U44 whole entry): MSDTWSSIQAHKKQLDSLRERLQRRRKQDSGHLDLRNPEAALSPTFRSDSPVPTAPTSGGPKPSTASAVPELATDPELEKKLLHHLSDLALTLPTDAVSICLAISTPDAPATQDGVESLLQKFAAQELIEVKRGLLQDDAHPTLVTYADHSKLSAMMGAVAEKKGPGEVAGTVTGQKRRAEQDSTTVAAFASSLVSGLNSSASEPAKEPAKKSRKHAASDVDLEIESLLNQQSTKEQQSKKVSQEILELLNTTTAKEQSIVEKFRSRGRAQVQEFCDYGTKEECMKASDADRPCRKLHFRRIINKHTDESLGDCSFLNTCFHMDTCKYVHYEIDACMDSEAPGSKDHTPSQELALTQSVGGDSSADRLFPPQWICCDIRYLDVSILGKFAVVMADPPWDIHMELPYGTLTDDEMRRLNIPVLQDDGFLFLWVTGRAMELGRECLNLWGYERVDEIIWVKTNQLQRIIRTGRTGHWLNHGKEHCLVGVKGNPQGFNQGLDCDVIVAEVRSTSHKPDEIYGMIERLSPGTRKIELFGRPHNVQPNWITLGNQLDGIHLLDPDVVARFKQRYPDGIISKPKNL

B1: HEXIM1 (natural protein)
chain: MAEPFLSEYQHQPQTSNCTGAAAVQEELNPERPPGAEERVPEEDSRWQSRAFPQLGGRPGPEGEGSLESQPPPLQTQACPESSCLREGEKGQNGDDSSAGGDFPPPAEVEPTPEAELLAQPCHDSEASKLGAPAAGGEEEWGQQQRQLGKKKHRRRPSKKKRHWKPYYKLTWEEKKKFDEKQSLRASRIRAEMFAKGQPVAPYNTTQFLMDDHDQEEPDLKTGLYSKRAAAKSDDTSDDDFMEEGGEEDGGSDGMGGDGSEFLQRDFSETYERYHTESLQNMSKQELIKEYLELEKCLSRMEDENNRLRLESKRLGGDDARVRELELELDRLRAENLQLLTENELHRQQERAPLSKFGD
  Kd: ~270 nM
